Experimental findings from PMC7950113 are described below.

Common to all, as to assay: Co-AP mass spectrometry with TMT quantification
Conditions in all cases: TMT intensities of interactors normalized to Tg intensities, read off a plot

The target in experiment [1] is ER degradation enhancing alpha-mannosidase-like 3 [human (endogenous in HEK293 cells)].
Experiment [2] deals with OS9 endoplasmic reticulum lectin [human (endogenous in HEK293 cells)].
The target in experiment [3] is RAD-dependent oxidoreductase domain containing 2 [human (endogenous in HEK293 cells)].
The target of experiment [4] is SEL1L adaptor subunit of ERAD E3 ubiquitin ligase [human (endogenous in HEK293 cells)].
Experiment [5] deals with UDP-glucose glycoprotein glucosyltansferase 1 [human (endogenous in HEK293 cells)].
In experiment [6] the target is calnexin [human (endogenous in HEK293 cells)].
Experiment [7] has as its target glucosidase II alpha subunit [human (endogenous in HEK293 cells)].
The target of experiment [8] is oligosaccharyl transferase complex catalytic subunit B [human (endogenous in HEK293 cells)].
Experiment [9] has as its target protein disulfide isomerase family A member 3 [human (endogenous in HEK293 cells)].

For the substance “FLAG-tagged thyroglobulin, WT mutant A2234D [human] / ER degradation enhancing alpha-mannosidase-like 3 [human (endogenous in HEK293 cells)] chain 1 A2215D”, the screen value in [1] was 0.2 log2. Regarding “FLAG-tagged thyroglobulin, WT mutant A2234D [human] / OS9 endoplasmic reticulum lectin [human (endogenous in HEK293 cells)] chain 1 A2215D”, the screen value in experiment [2] was 0.83 log2.

For the substance “FLAG-tagged thyroglobulin, WT mutant A2234D [human] / RAD-dependent oxidoreductase domain containing 2 [human (endogenous in HEK293 cells)] chain 1 A2215D”, the screen value in experiment [3] was 0.67 log2.

As to “FLAG-tagged thyroglobulin, WT mutant A2234D [human] / SEL1L adaptor subunit of ERAD E3 ubiquitin ligase [human (endogenous in HEK293 cells)] chain 1 A2215D”, the screen value in experiment [4] was determined as 0.57 log2. For the substance “FLAG-tagged thyroglobulin, WT mutant A2234D [human] / UDP-glucose glycoprotein glucosyltansferase 1 [human (endogenous in HEK293 cells)] chain 1 A2215D”, the screen value in experiment [5] was 0.38 log2. “FLAG-tagged thyroglobulin, WT mutant A2234D [human] / calnexin [human (endogenous in HEK293 cells)] chain 1 A2215D” gave a screen value in experiment [6] of -0.1 log2. Regarding “FLAG-tagged thyroglobulin, WT mutant A2234D [human] / glucosidase II alpha subunit [human (endogenous in HEK293 cells)] chain 1 A2215D”, the screen value in [7] came out at 0.2 log2. In the case of “FLAG-tagged thyroglobulin, WT mutant A2234D [human] / oligosaccharyl transferase complex catalytic subunit B [human (endogenous in HEK293 cells)] chain 1 A2215D”, in experiment [8], the screen value is -0.11 log2. In turn, “FLAG-tagged thyroglobulin, WT mutant A2234D [human] / protein disulfide isomerase family A member 3 [human (endogenous in HEK293 cells)] chain 1 A2215D” returned a screen value in experiment [9] of 0.16 log2.

As for “FLAG-tagged thyroglobulin, WT mutant C1264R [human] / ER degradation enhancing alpha-mannosidase-like 3 [human (endogenous in HEK293 cells)] chain 1 C1245R”, the screen value in experiment [1] is 0.07 log2. On to “FLAG-tagged thyroglobulin, WT mutant C1264R [human] / OS9 endoplasmic reticulum lectin [human (endogenous in HEK293 cells)] chain 1 C1245R”, for which the screen value in experiment [2] worked out at 0.39 log2.

Take “FLAG-tagged thyroglobulin, WT mutant C1264R [human] / RAD-dependent oxidoreductase domain containing 2 [human (endogenous in HEK293 cells)] chain 1 C1245R”: the screen value in experiment [3] was 0.42 log2. Turning to “FLAG-tagged thyroglobulin, WT mutant C1264R [human] / SEL1L adaptor subunit of ERAD E3 ubiquitin ligase [human (endogenous in HEK293 cells)] chain 1 C1245R”, the screen value in experiment [4] came to 0.43 log2. As for “FLAG-tagged thyroglobulin, WT mutant C1264R [human] / UDP-glucose glycoprotein glucosyltansferase 1 [human (endogenous in HEK293 cells)] chain 1 C1245R”, the screen value in experiment [5] worked out at 0.25 log2.

“FLAG-tagged thyroglobulin, WT mutant C1264R [human] / calnexin [human (endogenous in HEK293 cells)] chain 1 C1245R” gave a screen value in experiment [6] of -0.24 log2.

As to “FLAG-tagged thyroglobulin, WT mutant C1264R [human] / glucosidase II alpha subunit [human (endogenous in HEK293 cells)] chain 1 C1245R”, in experiment [7], the screen value amounted to 0.16 log2. In experiment [8], “FLAG-tagged thyroglobulin, WT mutant C1264R [human] / oligosaccharyl transferase complex catalytic subunit B [human (endogenous in HEK293 cells)] chain 1 C1245R” returned a screen value of -0.21 log2. In turn, “FLAG-tagged thyroglobulin, WT mutant C1264R [human] / protein disulfide isomerase family A member 3 [human (endogenous in HEK293 cells)] chain 1 C1245R” registered a screen value in experiment [9] of 0.35 log2. In the case of “FLAG-tagged thyroglobulin, WT mutant G2341R [human] / ER degradation enhancing alpha-mannosidase-like 3 [human (endogenous in HEK293 cells)] chain 1 G2322R”, the screen value in experiment [1] was 0.09 log2.

As for “FLAG-tagged thyroglobulin, WT mutant G2341R [human] / OS9 endoplasmic reticulum lectin [human (endogenous in HEK293 cells)] chain 1 G2322R”, the screen value in experiment [2] was determined as 0.73 log2. With “FLAG-tagged thyroglobulin, WT mutant G2341R [human] / RAD-dependent oxidoreductase domain containing 2 [human (endogenous in HEK293 cells)] chain 1 G2322R”, in [3], the screen value turned out to be 0.45 log2. “FLAG-tagged thyroglobulin, WT mutant G2341R [human] / SEL1L adaptor subunit of ERAD E3 ubiquitin ligase [human (endogenous in HEK293 cells)] chain 1 G2322R” registered a screen value in [4] of 0.44 log2.

“FLAG-tagged thyroglobulin, WT mutant G2341R [human] / UDP-glucose glycoprotein glucosyltansferase 1 [human (endogenous in HEK293 cells)] chain 1 G2322R” returned a screen value in [5] of 0.64 log2.

The substance “FLAG-tagged thyroglobulin, WT mutant G2341R [human] / calnexin [human (endogenous in HEK293 cells)] chain 1 G2322R” came in with a screen value in experiment [6] of 0.06 log2. Substance “FLAG-tagged thyroglobulin, WT mutant G2341R [human] / glucosidase II alpha subunit [human (endogenous in HEK293 cells)] chain 1 G2322R” had a screen value in [7] of 0.36 log2. For “FLAG-tagged thyroglobulin, WT mutant G2341R [human] / oligosaccharyl transferase complex catalytic subunit B [human (endogenous in HEK293 cells)] chain 1 G2322R”, the screen value in experiment [8] came to 0.26 log2. In experiment [9], “FLAG-tagged thyroglobulin, WT mutant G2341R [human] / protein disulfide isomerase family A member 3 [human (endogenous in HEK293 cells)] chain 1 G2322R” came in with a screen value of 0.55 log2.

Turning to “FLAG-tagged thyroglobulin, WT mutant L2284P [human] / ER degradation enhancing alpha-mannosidase-like 3 [human (endogenous in HEK293 cells)] chain 1 L2265P”, in experiment [1], the screen value is 0.2 log2. Consider “FLAG-tagged thyroglobulin, WT mutant L2284P [human] / OS9 endoplasmic reticulum lectin [human (endogenous in HEK293 cells)] chain 1 L2265P”, for which the screen value in experiment [2] was determined as 0.57 log2. For the substance “FLAG-tagged thyroglobulin, WT mutant L2284P [human] / SEL1L adaptor subunit of ERAD E3 ubiquitin ligase [human (endogenous in HEK293 cells)] chain 1 L2265P”, the screen value in [4] worked out at 0.49 log2.

For “FLAG-tagged thyroglobulin, WT mutant L2284P [human] / UDP-glucose glycoprotein glucosyltansferase 1 [human (endogenous in HEK293 cells)] chain 1 L2265P”, the screen value in experiment [5] came out at 0.58 log2. Consider “FLAG-tagged thyroglobulin, WT mutant L2284P [human] / calnexin [human (endogenous in HEK293 cells)] chain 1 L2265P”, for which the screen value in [6] is 0.13 log2. For the substance “FLAG-tagged thyroglobulin, WT mutant L2284P [human] / glucosidase II alpha subunit [human (endogenous in HEK293 cells)] chain 1 L2265P”, in [7], the screen value was found to be 0.26 log2. Regarding “FLAG-tagged thyroglobulin, WT mutant L2284P [human] / oligosaccharyl transferase complex catalytic subunit B [human (endogenous in HEK293 cells)] chain 1 L2265P”, in [8], the screen value was 0.07 log2. Regarding “FLAG-tagged thyroglobulin, WT mutant L2284P [human] / protein disulfide isomerase family A member 3 [human (endogenous in HEK293 cells)] chain 1 L2265P”, the screen value in [9] turned out to be 0.6 log2.
